Source: article doi:10.1101/2020.06.04.133611 (bioRxiv, 2020)

B1: MlaF (natural protein)
chain: MEQSVANLVDMRDVSFTRGNRCIFDNISLTVPRGKITAIMGPSGIGKTTLLRLIGGQIAPDHGEILFDGENIPAMSRSRLYTVRKRMSMLFQSGALFTDMNVFDNVAYPLREHTQLPAPLLHSTVMMKLEAVGLRGAAKLMPSELSGGMARRAALARAIALEPDLIMFDEPFVGQDPITMGVLVKLISELNSALGVTCVVVSHDVPEVLSIADHAWILADKKIVAHGSAQALQANPDPRVRQFLDGIADGPVPFRYPAGDYHADLLPGS
B2: MlaE (natural protein)
chain: MLLNALASLGHKGIKTLRTFGRAGLMLFNALVGKPEFRKHAPLLVRQLYNVGVLSMLIIVVSGVFIGMVLGLQGYLVLTTYSAETSLGMLVALSLLRELGPVVAALLFAGRAGSALTAEIGLMRATEQLSSMEMMAVDPLRRVISPRFWAGVISLPLLTVIFVAVGIWGGSLVGVSWKGIDSGFFWSAMQNAVDWRMDLVNCLIKSVVFAITVTWISLFNGYDAIPTSAGISRATTRTVVHSSLAVLGLDFVLTALMFGN

Tests used:
[1] = target: Strep-tagged MlaDΔTM (E. coli K-12); test: SDS-PAGE of the purified protein
cryo-EM structure = target: the molecule itself; test: cryo-EM structure

Molecule	stoichiometry N [1]	stoichiometry N (cryo-EM structure)
Strep-tagged MlaDΔTM (domain or fragment)	6	–
B1	–	2
B2	–	2
